Test results taken from US20240254227A1 (Alector, published 2024).
Substitutions are numbered along the chain they refer to.

T1: recombinant murine CD300LB overexpressed on BaF/3 cells (mouse, UniProt Q3U497 18-209)
T1 construct: Cells carry pMXs-Myc-tagged muCD300LB together with FLAG-tagged DAP12; also called muCD300LB; BaF/3 overexpressing muCD300LB
T1 sequence: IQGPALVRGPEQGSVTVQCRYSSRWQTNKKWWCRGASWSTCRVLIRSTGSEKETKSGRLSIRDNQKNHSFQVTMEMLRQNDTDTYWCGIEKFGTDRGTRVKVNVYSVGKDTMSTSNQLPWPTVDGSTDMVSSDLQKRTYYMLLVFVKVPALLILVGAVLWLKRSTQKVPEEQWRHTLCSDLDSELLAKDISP

T2: murine CD300E-Fc (mouse)
T2 construct: mouse IgG2a-Fc fusion (R&D Systems); the entry is the whole fusion chain; also called mCD300E; Mouse CD300E-Fc
T2 chain: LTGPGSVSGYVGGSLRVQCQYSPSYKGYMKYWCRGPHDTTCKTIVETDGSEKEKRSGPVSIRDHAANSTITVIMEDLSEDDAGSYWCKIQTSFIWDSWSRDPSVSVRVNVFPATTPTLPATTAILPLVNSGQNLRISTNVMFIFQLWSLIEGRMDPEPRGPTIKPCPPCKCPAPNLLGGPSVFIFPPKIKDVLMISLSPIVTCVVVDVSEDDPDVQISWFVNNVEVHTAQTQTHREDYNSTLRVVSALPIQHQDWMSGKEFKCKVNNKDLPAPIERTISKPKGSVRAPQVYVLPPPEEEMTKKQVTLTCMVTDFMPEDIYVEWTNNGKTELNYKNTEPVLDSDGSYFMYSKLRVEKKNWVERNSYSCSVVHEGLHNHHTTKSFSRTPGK

T3: murine CD300LB-Fc (mouse)
T3 construct: mouse IgG2a-Fc fusion (R&D Systems); the entry is the whole fusion chain; also called mCD300LB; Mouse CD300LB-Fc
T3 chain: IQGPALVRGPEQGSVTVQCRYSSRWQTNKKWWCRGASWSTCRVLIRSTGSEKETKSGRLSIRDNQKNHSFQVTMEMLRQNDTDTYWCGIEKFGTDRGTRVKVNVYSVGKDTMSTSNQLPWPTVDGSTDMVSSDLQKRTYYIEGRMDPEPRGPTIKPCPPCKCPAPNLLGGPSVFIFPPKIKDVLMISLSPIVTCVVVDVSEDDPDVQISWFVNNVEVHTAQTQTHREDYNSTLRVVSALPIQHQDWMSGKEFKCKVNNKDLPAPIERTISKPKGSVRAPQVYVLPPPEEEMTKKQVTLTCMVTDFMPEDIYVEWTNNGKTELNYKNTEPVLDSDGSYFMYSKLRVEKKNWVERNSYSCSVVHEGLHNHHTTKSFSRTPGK

B1: anti-CD300LB antibody CD-11 (antibody, V domains shown)
VH: QIQLVQSGPEVKKPGETVKISCKASGYTLTDYSMHWVMQTPGTGLKWMAWMNTETGEPTYADDFKGRFAFSLETSAGTAYLQIDNLKNEDTATYFCATYGKSYGMKYWGQGTSVTVSS
VL: DIVLTQSPPSLAVSLGQRATISCRATKSVSPYLHWYQQTPGQPPKLLIYLASNLDSGVPARFSGSGSGTDFTLNIHPVEEEDAATYYCQHNKELPPTFGGGTRLEIK
B2: anti-CD300LB antibody CD-12 (antibody, V domains shown)
VH: QIQLVQSGPELKKPGETVKISCKASGYTFTDYSMHWVRQAPGKGLKWMAWINTETGEATHADDFKGRFDFSLDTSASTAYLQIKNLKNEDTGIYFCVCYGSSYGMDYWGQGTSVTVSS
VL: DIVLTQSPASLPVSLGQRATISCRASKSVRTSGASYMHWYQQKPGQPPKLLIYLASNLKSGVPTRFSGSGSGTDFTLNIHPVEEEDAATYYCQHNREVPPTFGGGTKLEIK
B3: anti-CD300LB antibody CD-13 (antibody, V domains shown)
VH: QIQLVQSGPELKKPGETVKISCKASGYTFTDYSMHWVKQAPGKGFKWMAWINTETGAPTHADDFRGRFAFSLETSASTAFLQISNLKTEDTATYFCVTFGKSYGMNYWGQGTSVTVSS
VL: B2 VL with P12S, R30G, T31S, A34S, M37L, K59E, T64A, D74E, R96A
B4: anti-CD300LB antibody CD-14 (antibody, V domains shown)
VH: QIQLVQSGPELKKPGETVKISCKASGYTFTDYSLHWVKQTPEKNLKWMAWINTETGAPTYADDFKGRFAFSLETSSNTAYLLINNLKNEDTATYFCALTMVNYWGQGTTLTVSS
VL: DIVMTQSQKFMSTSVGDRVSVTCKASQNVGIRVAWHQQKPGQSPKTLIYSTSYRYSGVPDRFTGSGSGTEFILTISNVQSEDLAEYFCQQYNSYPYTFGGGTKLEIK
B5: anti-CD300LB antibody CD-15 (antibody, V domains shown)
VH: QIQLVQSGPELKKPGETVKISCQVSGYTFTDYSMHWLKQAPGKGLKWMAWINTETGESTYTDEFKGRFVFSLETSVRTAYLKINNLKNEDTATYFCGTYGSSYGMAYWGQGTSVTVSS
VL: B2 VL with R30S, A34S, M37L, N57K, K59E, T64A, S67R
B6: anti-CD300LB antibody CD-16 (antibody, V domains shown)
VH: QIQLVQSGPELKKPGETVKISCKASGYTFTDYSMHWVKQAPGKGLKWMAWINTETGEPTYADDFRGRFAFSLETSGRTAYLEINNLRNEDTATYFCVTYGSSYGMAYWGQGTSVTVSS
VL: B2 VL with P12A, R30S, T31R, A34Y, M37L, N57K, K59E, T64A, E84A, V98I
B7: anti-CD300LB antibody CD-17 (antibody, V domains shown)
VH: QIQLVQSGPELKKPGETVKISCKASGYTLTDYSMHWVKQAPGKGLKWMGWINTETGEPRYGDDFKGRFAFSLETSASSAYLQINNLKNDDTATYFCATYGRSYGMDFWGQGTSVTVSS
VL: B2 VL with P12A, R30S, T31P, A34H, T64A, E85G, V98L, T106S
B8: anti-CD300LB antibody CD-18 (antibody, V domains shown)
VH: DVQLQESGPDLVKPSQSLSLTCTVTGYSITSGYSWHWIRQFPDNKLEWMGYILSRGDTNFNPSLKSRISITRSTSNNQFFLHFNSVTTEDTATYYCARDFFDYWGQGTTLTVSS
VL: DVLMTQTPLSLPVSLGDQASISCRSSQSIVHSNGNTYLEWYLQKPGQSPKLLIYKVSDRFSGVPDRFSGSGSGTDFTLKISRVEAEDLGVYFCFQGSHVPYTFGGGTKLEIK
B9: anti-CD300LB antibody CD-10 (antibody, V domains shown)
VH: QVQLQQSGPELVRPGVSVKISCKGSGYTFTDYAMHWVKQSHVRSREWIGVIGTYNGHTNYNQKFKGKATMTVDKSSSTAYLELARLTSEDSAIYYCARSGSYYYSMDYWGQGTSVTVSS
VL: QIVLTQSPAIMSASPGEKVTMTCSASSSVNYMHWYQQKSGTSPKRWIYDTSKLSSGVPARFSGSGSGTSYSLTISTMEAEDAATYYCQQWSSNPPMTFGGGTKLEIK

Tests used:
[1] = target: T1, recombinant murine CD300LB …; test: flow cytometry, BaF/3 cells overexpressing muCD300LB
Description: Purified anti-CD300LB antibodies of the present disclosure were evaluated for their binding affinity to either Jurkat cells overexpressing recombinant huCD300LB or BaF/3 cells overexpressing recombinant muCD300LB. Binding of anti-CD300LB antibodies to the cells was determined as follows. Cells were harvested, washed, and labeled with propidium iodide for viability discrimination. After washing the cells with PBS, 1×10⁵ cells were aliquoted per well in 96-well U-bottom plates and incubated with 100 μL of purified anti-CD300LB antibody at various concentrations in FACS buffer (PBS+2% FBS). After this primary incubation, the supernatant was removed via centrifugation, the cells washed twice with 150 μL of ice-cold FACS buffer, and then incubated with the appropriate secondary antibody on ice for 30 minutes. Following the secondary antibody incubation, the cells were again washed twice with ice-cold FACS buffer and resuspended in a final volume of 200 L FACS buffer. Flow cytometry analysis was then performed using the FACSCanto system (BD Biosciences).

murine CD300E-Fc = target: T2, murine CD300E-Fc; test: SPR (Carterra LSA), antibody immobilised
From the text: (§1) In addition to the screening of antibodies for cross-reactivity by FACS analysis, surface plasmon resonance (SPR) analysis was used to determine the binding of antibodies to recombinant huCD300 and muCD300 family members (orthologs) conjugated to an Fc (human CD300A-Fc SEQ ID NO:144; human CD300LB-Fc SEQ ID NO:145; human CD300C-Fc SEQ ID NO: 146; human CD300D-Fc SEQ ID NO: 147; human CD300E-Fc SEQ ID NO: 148; human CD300F-Fc SEQ ID NO: 149; murine CD300A-Fc SEQ ID NO: 150; murine CD300LB-Fc SEQ ID NO:151; murine CD300C-Fc SEQ ID NO: 152; murine CD300D-Fc SEQ ID NO: 153, and murine CD300E-Fc SEQ ID NO: 154).
(§2) Binding of mouse anti-CD300LB IgG1 antibodies of the present disclosure to human and murine CD300 orthologs were evaluated by surface plasmon resonance (SPR) using a Carterra LSA instrument (Carterra, Salt Lake City, UT). […] A HC200M sensor chip (Carterra) was activated using the single channel flow cell with a 7-minute injection of a 1:1:1 mixture of 100 mM MES pH 5.5, 100 mM sulfo-NHS, 400 mM EDC (all reconstituted in MES pH 5.5; 100 μL of each mixed in vial immediately before running assay). After switching to the multi-channel array flow cell, the antibodies were injected over the activated chip in a 96-spot array for 10 minutes. The remaining unconjugated active groups on the chip were then blocked by injecting 1M Ethanolamine pH 8.5 (Carterra) for 7 minutes using the single channel flow cell. After priming with running buffer (HBS-TE, Carterra) with 0.5 mg/ml BSA (Sigma), the immobilized anti-CD300LB antibodies were tested for their ability to bind human and mouse recombinant CD300LB extracellular domains. Human CD300 family members and mouse CD300A were hIgG1-Fc fusions, while mouse CD300LB, mouse CD300C, mouse CD300D, and mouse CD300E were mouse IgG2a-Fc fusions (R&D Systems). Binding was assessed by injecting each analyte over the entire antibody array using the single channel flow cell. CD300 analytes were diluted to 300 nM or 600 nM in running buffer and injected in series without regeneration. Two or three buffer blanks were run between each mouse or human ortholog, respectively. Data were processed and analyzed using NextGenKIT high-throughput kinetics analysis software (Carterra).

murine CD300A-Fc [2] = target: T4, murine CD300A-Fc (mouse); test: SPR (Carterra LSA), antibody immobilised
T4 construct: hIgG1-Fc fusion; the entry is the whole fusion chain; also called mCD300A; Mouse CD300A-Fc
T4 sequence (chain, as listed by the source limits assumed): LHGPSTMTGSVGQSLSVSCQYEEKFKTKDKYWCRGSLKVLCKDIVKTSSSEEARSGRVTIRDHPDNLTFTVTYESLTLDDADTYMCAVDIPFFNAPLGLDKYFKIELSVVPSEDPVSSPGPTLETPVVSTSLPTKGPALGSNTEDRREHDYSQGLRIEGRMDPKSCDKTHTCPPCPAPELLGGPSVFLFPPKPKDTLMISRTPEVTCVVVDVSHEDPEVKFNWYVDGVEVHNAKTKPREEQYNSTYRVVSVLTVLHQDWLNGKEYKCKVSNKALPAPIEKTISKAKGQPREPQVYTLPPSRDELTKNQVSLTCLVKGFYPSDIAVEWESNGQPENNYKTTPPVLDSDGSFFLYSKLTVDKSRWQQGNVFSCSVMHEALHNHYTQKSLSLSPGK
From the text: as §1, §2

murine CD300LB-Fc = target: T3, murine CD300LB-Fc; test: SPR (Carterra LSA), antibody immobilised, Fc fusion at 300 or 600 nM
Description: as §2
(§3) Results of anti-CD300LB antibody binding to murine CD300 family members is provided below in Table 8.

murine CD300A-Fc [3] = target: T4, murine CD300A-Fc; test: as above
Description: as §2, §3

Binder | gMFI [1] | binding result (murine CD300E-Fc) | binding result (murine CD300A-Fc [2]) | SPR binding (control subtracted) (murine CD300LB-Fc) | SPR binding (control subtracted) (murine CD300A-Fc [3])
B1 | 10900 gMFI | no binding (tested: 300 nM or 600 nM) | no binding (tested: 300 nM or 600 nM) | 87.7 | -2.1
B2 | 9800 gMFI | no binding (tested: 300 nM or 600 nM) | no binding (tested: 300 nM or 600 nM) | 43.2 | 4.2
B3 | 22100 gMFI | no binding (tested: 300 nM or 600 nM) | no binding (tested: 300 nM or 600 nM) | 82.4 | 4.4
B4 | 19400 gMFI | no binding (tested: 300 nM or 600 nM) | no binding (tested: 300 nM or 600 nM) | 29 | 2.7
B5 | 8330 gMFI | no binding (tested: 300 nM or 600 nM) | no binding (tested: 300 nM or 600 nM) | 50 | 7.1
B6 | 8970 gMFI | no binding (tested: 300 nM or 600 nM) | no binding (tested: 300 nM or 600 nM) | 310 | -1.9
B7 | – | no binding (tested: 300 nM or 600 nM) | no binding (tested: 300 nM or 600 nM) | 11.3 | 2.9
B8 | – | no binding (tested: 300 nM or 600 nM) | no binding (tested: 300 nM or 600 nM) | 328 | 2.9
B9 | 6260 gMFI | no binding (tested: 300 nM or 600 nM) | no binding (tested: 300 nM or 600 nM) | 370 | -2.5
